Laboratory results reported in the supplement of paper PMC9112550, “Optimization of the antimicrobial peptide Bac7 by deep mutational scanning” (BMC Biology, 2022).

tested on: Escherichia coli TOP10; test: shrunken log2 fold change of peptide-encoding DNA abundance (4.5 h post-induction vs induction); higher = less antimicrobial activity (less host growth inhibition); conditions: time post-induction: 4.5 h; library: site-saturation at positions 5, 18, 19, 20
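Note: peptides expressed intracellularly from a pBAD plasmid library in pooled LB shake-flask culture, induced with 0.3% L-arabinose, DNA abundance read by NGS, three biological replicates, DESeq2 with apeglm shrinkage.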

| Sequence | shrunken log2 fold change |
| --- | --- |
| RRIRGRPPRLPRPRPRPKHYPRP | 0.0538 |
| RRIRGRPPRLPRPRPRPKKDPRP | 0.708 |
| RRIRGRPPRLPRPRPRPKLFPRP | 0.75 |
| RRIRGRPPRLPRPRPRPKLLPRP | 0.84 |
| RRIRGRPPRLPRPRPRPKNMPRP | 0.176 |
| RRIRGRPPRLPRPRPRPKPWPRP | 0.914 |
| RRIRGRPPRLPRPRPRPKQNPRP | 0.853 |
| RRIRGRPPRLPRPRPRPKQPPRP | 1.08 |
| RRIRGRPPRLPRPRPRPKRYPRP | 0.253 |
| RRIRGRPPRLPRPRPRPKSGPRP | 0.707 |
| RRIRGRPPRLPRPRPRPKSRPRP | 0.0451 |
| RRIRGRPPRLPRPRPRPKTEPRP | 0.713 |
| RRIRGRPPRLPRPRPRPKVAPRP | 0.538 |
| RRIRGRPPRLPRPRPRPKVGPRP | 0.721 |
| RRIRGRPPRLPRPRPRPKVHPRP | 0.598 |
| RRIRGRPPRLPRPRPRPLALPRP | 0.665 |
| RRIRGRPPRLPRPRPRPLAYPRP | 0.721 |
| RRIRGRPPRLPRPRPRPLCKPRP | 0.529 |
| RRIRGRPPRLPRPRPRPLCSPRP | 0.496 |
| RRIRGRPPRLPRPRPRPLEWPRP | 1.03 |
| RRIRGRPPRLPRPRPRPLGDPRP | 0.624 |
| RRIRGRPPRLPRPRPRPLGNPRP | 0.17 |
| RRIRGRPPRLPRPRPRPLHEPRP | 0.74 |
| RRIRGRPPRLPRPRPRPLHVPRP | -0.0922 |
| RRIRGRPPRLPRPRPRPLICPRP | 0.147 |

| Sequence | shrunken log2 fold change |
| --- | --- |
| RRIRGRPPRLPRPRPRPLIMPRP | 0.206 |
| RRIRGRPPRLPRPRPRPLIPPRP | -0.0737 |
| RRIRGRPPRLPRPRPRPLKVPRP | 0.271 |
| RRIRGRPPRLPRPRPRPLKWPRP | 0.367 |
| RRIRGRPPRLPRPRPRPLMHPRP | 0.592 |
| RRIRGRPPRLPRPRPRPLMPPRP | 0.285 |
| RRIRGRPPRLPRPRPRPLNLPRP | -0.018 |
| RRIRGRPPRLPRPRPRPLPSPRP | 0.83 |
| RRIRGRPPRLPRPRPRPLPWPRP | 0.702 |
| RRIRGRPPRLPRPRPRPLQFPRP | 0.312 |
| RRIRGRPPRLPRPRPRPLSVPRP | 0.383 |
| RRIRGRPPRLPRPRPRPLTDPRP | 0.284 |
| RRIRGRPPRLPRPRPRPMAAPRP | 1.4 |
| RRIRGRPPRLPRPRPRPMALPRP | -0.0079 |
| RRIRGRPPRLPRPRPRPMATPRP | 1.37 |
| RRIRGRPPRLPRPRPRPMCAPRP | 1.88 |
| RRIRGRPPRLPRPRPRPMCLPRP | 0.0563 |
| RRIRGRPPRLPRPRPRPMEEPRP | 0.48 |
| RRIRGRPPRLPRPRPRPMETPRP | 0.00487 |
| RRIRGRPPRLPRPRPRPMFAPRP | 1.57 |
| RRIRGRPPRLPRPRPRPMFHPRP | 0.074 |
| RRIRGRPPRLPRPRPRPMFLPRP | -0.0125 |
| RRIRGRPPRLPRPRPRPMHLPRP | 0.186 |
| RRIRGRPPRLPRPRPRPMHRPRP | 0.405 |
| RRIRGRPPRLPRPRPRPMNGPRP | 0.00709 |

| Sequence | shrunken log2 fold change |
| --- | --- |
| RRIRGRPPRLPRPRPRPMNLPRP | 0.00442 |
| RRIRGRPPRLPRPRPRPMPRPRP | 1.03 |
| RRIRGRPPRLPRPRPRPMQKPRP | 0.61 |
| RRIRGRPPRLPRPRPRPMQQPRP | 2.08 |
| RRIRGRPPRLPRPRPRPMRAPRP | 1.74 |
| RRIRGRPPRLPRPRPRPMRWPRP | 0.844 |
| RRIRGRPPRLPRPRPRPMSPPRP | 0.00263 |
| RRIRGRPPRLPRPRPRPMTFPRP | 0.536 |
| RRIRGRPPRLPRPRPRPMTPPRP | 1.07 |
| RRIRGRPPRLPRPRPRPMVGPRP | 0.108 |
| RRIRGRPPRLPRPRPRPMWNPRP | 0.557 |
| RRIRGRPPRLPRPRPRPMYDPRP | 0.233 |
| RRIRGRPPRLPRPRPRPMYSPRP | 0.208 |
| RRIRGRPPRLPRPRPRPMYVPRP | -0.0802 |
| RRIRGRPPRLPRPRPRPNDAPRP | 0.0548 |
| RRIRGRPPRLPRPRPRPNDKPRP | 0.342 |
| RRIRGRPPRLPRPRPRPNGLPRP | 0.377 |
| RRIRGRPPRLPRPRPRPNIPPRP | -0.251 |
| RRIRGRPPRLPRPRPRPNKCPRP | 0.139 |
| RRIRGRPPRLPRPRPRPNKPPRP | -0.035 |
| RRIRGRPPRLPRPRPRPNPGPRP | 0.158 |
| RRIRGRPPRLPRPRPRPNPLPRP | 0.217 |
| RRIRGRPPRLPRPRPRPNPTPRP | 0.602 |
| RRIRGRPPRLPRPRPRPNPVPRP | 0.145 |
| RRIRGRPPRLPRPRPRPNQWPRP | 0.259 |
